In data set [1] the target is T1, MotA E153A (Enterobacteria phage T4, UniProt P22915 1-211, E153A).
T1 sequence: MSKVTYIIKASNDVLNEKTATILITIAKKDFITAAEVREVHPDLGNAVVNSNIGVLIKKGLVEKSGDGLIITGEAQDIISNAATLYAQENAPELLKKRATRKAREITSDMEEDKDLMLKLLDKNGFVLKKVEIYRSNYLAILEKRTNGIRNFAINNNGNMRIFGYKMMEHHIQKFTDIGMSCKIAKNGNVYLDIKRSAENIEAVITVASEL
Briefly: EMSA; no difference; data not shown; EMSA: 0.01 pmol 32P-DNA, 1.7 pmol MotA, native 12% PAGE in 1x TBE at 4 C, other conditions as in ref 14; SPR: biotin-DNA on neutravidin chip, buffer as in ref 2.

The target of data set [2] is T1, MotA E153A. Briefly: EMSA; slightly tighter than wt; EMSA: 0.01 pmol 32P-DNA, 1.7 pmol MotA, native 12% PAGE in 1x TBE at 4 C, other conditions as in ref 14; SPR: biotin-DNA on neutravidin chip, buffer as in ref 2. A general note: A gel shift assay detects complexes by their altered migration in electrophoresis.
Data set [3] deals with T2, MotA Y134A (Enterobacteria phage T4, UniProt P22915 1-211, Y134A).
T2 sequence: T1 sequence with Y134A, A153E
Briefly: EMSA; similar to wt; EMSA: 0.01 pmol 32P-DNA, 1.7 pmol MotA, native 12% PAGE in 1x TBE at 4 C, other conditions as in ref 14; SPR: biotin-DNA on neutravidin chip, buffer as in ref 2.

Consider two molecules from PMC6007404 (Nucleic Acids Research, 2018).

Where a chain is given by its changes, count along the chain named.

B1: EMSA 19-mer GHMe/unmod (dsDNA)
DNA 1: AATTATTTGCTTTAGATTA
DNA 2: TAATCTAAAGCAAATAATT
modifications: beta-D-glucosyl-5-hydroxymethyl-dC at top C10
In the case of B1, in data set [1], the binding result was “binds”.

B2: EMSA 19-mer unmodified (dsDNA)
DNA 1: AATTATTTGCTTTAGATTA
DNA 2: TAATCTAAAGCAAATAATT
As to B2, the binding result in data set [2] and in data set [3] was “binds” throughout.
